Measured values from paper PMC5893359 (Cancer cell, 2018).

B1: bovine RNase A (enzyme, UniProt P61823 27-150, looked up)
chain: KETAAAKFERQHMDSSTSAASSSNYCNQMMKSRNLTKDRCKPVNTFVHESLADVQAVCSQKNVACKNGQTNCYQSYSTMSITDCRETGSSKYPNCAYKTTQANKHIIVACEGNPYVPVHFDASV

Tests used:
[1] = molecular target: epidermal growth factor receptor, endogenous in A431 cell lysate (human (endogenous in A431)) (UniProt P00533); test: ELISA
[2] = molecular target: epidermal growth factor receptor, endogenous in A431 cell lysate (human (endogenous in A431), UniProt P00533 25-1210); test: ELISA

Row | Molecule | Kd [1] [nM] | Kd [2] [nM]
1 | amphiregulin, recombinant (from UniProt P15514 20-187) (ligand) | 217 | –
2 | B1 | – | 885
